Results published in patent US20130260455A1 (ONCOMED PHARMACEUTICALS, published 2013).
Changes are numbered by the printed parent chain.

B1: 59R1 Fab (Fab, V domains shown)
VH: QVQLVESGGGLVQPGGSLRLSCAASGFTFSSSGMSWVRQAPGKGLEWVSVIASSGSNTYYADSVKGRFTISRDNSKNTLYLQMNSLRAEDTAVYYCARGIFFAIWGQGTLVTVSS
VL: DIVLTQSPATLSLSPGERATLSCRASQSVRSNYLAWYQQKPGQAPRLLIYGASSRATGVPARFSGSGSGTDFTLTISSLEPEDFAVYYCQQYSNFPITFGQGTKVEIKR
notes: also called Clone 1; 59R Fab antibody
B2: 59R5 antibody (antibody, human IgG2, kappa, V domains shown)
VH: B1 VH with Q1E, G99S, F102Y, A103T, I104T
VL: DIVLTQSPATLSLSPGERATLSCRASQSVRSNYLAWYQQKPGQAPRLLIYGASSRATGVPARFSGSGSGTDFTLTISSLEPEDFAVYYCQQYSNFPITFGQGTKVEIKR
notes: Human IgG2; also called anti-Notch2/3 antibody 59R5; 59R5 IgG2

Key:
[1] = biological target: T1, hN2 1-8 (human Notch2 amino acids 1-341 fused to hFc) (human, UniProt Q04721 26-341); test: capture ELISA: hN2-hFc from HEK-293 supernatant on anti-human Fc plates, 59R1 Fab, HRP anti-human Fab [upper graph]
T1 construct: not shown: constant region of human IgG (hFc)
T1 sequence: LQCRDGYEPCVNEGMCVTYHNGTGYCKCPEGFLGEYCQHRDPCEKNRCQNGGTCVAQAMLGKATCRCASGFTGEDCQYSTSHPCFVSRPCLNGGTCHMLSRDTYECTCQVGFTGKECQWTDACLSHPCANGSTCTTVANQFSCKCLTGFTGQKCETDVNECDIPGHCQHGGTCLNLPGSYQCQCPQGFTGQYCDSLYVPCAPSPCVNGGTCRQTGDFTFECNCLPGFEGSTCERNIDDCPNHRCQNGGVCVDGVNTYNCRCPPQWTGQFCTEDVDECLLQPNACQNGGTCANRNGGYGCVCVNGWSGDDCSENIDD
Description: (§1) The binding of anti-Notch2/3 antibodies to supernatant from HEK 293 cells transfected with sequences encoding recombinant human Notch2 Fc fusion proteins comprising the full length human Notch2 protein or various human Notch2 deletion constructs containing various deletions of EGF repeats one to twelve were tested by ELISA. HEK-293 cells were transiently transfected with pcDNA 3.1 (Invitrogen) with hNotch2 cDNA's encoding for the indicated amino acids fused to the constant region of human IgG (hFc). Supernatants were harvested 48 hours later. To capture hN2-hfc proteins, 96 well plates were first coated with goat anti-human Fec gamma specific IgG (Jackson Immunochemicals, #109-006-098) at 100 ng per well in sodium bicarbonate buffer overnight at 4°. Plates were washed and blocked in 5% bovine serum/PBS-Tween-20. Supernatants were added to plates and incubated at room temperature for 1 hour. Plates were washed in PBS-T. 59R1 Fab was added at 10 μg/ml in 5% serum/PBS-T and incubated at room temperature for 1 hour. Plates were washed in PBS-T. Fab binding was detected by goat anti-human Fab specific antibody conjugated to horseradish peroxidase (Thermo. #31414) diluted 1:5000 in 5% serum/PBS-T for 1 hour at room temperature. Plates were washed and developed with 1 Step Ultra TMB (Thermo. #34028). Plates were read on a Perkin Elmer Victor 1420 plate reader. […] (FIG. 3A).

[2] = biological target: T2, hN2 1-3 (human Notch2 amino acids 1-144 fused to hFc) (human, UniProt Q04721 26-144); test: as above
T2 construct: Supernatant of transfected HEK-293 cells, captured with anti-human Fc; not shown: constant region of human IgG (hFc)
Description: as §1

[3] = biological target: T3, hN2 1-5 (human Notch2 amino acids 1-221 fused to hFc) (human, UniProt Q04721 26-221); test: as above
T3 construct: not shown: constant region of human IgG (hFc)
Description: as §1

[4] = biological target: T4, hN2 1-9 (human Notch2 amino acids 1-378 fused to hFc) (human, UniProt Q04721 26-378); test: as above
T4 construct: not shown: constant region of human IgG (hFc)
T4 sequence: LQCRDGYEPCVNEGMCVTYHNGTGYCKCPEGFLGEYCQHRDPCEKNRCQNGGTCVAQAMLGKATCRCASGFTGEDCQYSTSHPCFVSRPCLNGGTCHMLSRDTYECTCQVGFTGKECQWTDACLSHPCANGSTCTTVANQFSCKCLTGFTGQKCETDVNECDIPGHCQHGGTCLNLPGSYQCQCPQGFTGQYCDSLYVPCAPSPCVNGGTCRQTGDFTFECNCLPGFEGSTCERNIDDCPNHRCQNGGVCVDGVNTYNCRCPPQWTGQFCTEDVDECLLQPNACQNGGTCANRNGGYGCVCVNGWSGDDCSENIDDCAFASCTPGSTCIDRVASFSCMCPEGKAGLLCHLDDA
Description: as §1

[5] = biological target: T5, hN2 1-4 (human Notch2 amino acids 1-181 fused to hFc) (human, UniProt Q04721 26-181); test: as above
T5 construct: not shown: constant region of human IgG (hFc)
Description: as §1

[6] = biological target: T6, hN2 1-6 (human Notch2 amino acids 1-263 fused to hFc) (human, UniProt Q04721 26-263); test: as above
T6 construct: not shown: constant region of human IgG (hFc)
T6 sequence: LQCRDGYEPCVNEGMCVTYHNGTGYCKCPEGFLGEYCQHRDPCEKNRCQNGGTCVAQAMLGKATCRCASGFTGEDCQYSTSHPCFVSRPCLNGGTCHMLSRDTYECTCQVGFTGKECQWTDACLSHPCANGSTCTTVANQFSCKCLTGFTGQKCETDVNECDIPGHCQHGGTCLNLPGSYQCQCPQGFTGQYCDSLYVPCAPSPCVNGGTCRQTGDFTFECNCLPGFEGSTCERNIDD
Description: as §1

[7] = biological target: T7, hN2 1-7 (human Notch2 amino acids 1-301 fused to hFc) (human, UniProt Q04721 26-301); test: as above
T7 construct: not shown: constant region of human IgG (hFc)
T7 sequence: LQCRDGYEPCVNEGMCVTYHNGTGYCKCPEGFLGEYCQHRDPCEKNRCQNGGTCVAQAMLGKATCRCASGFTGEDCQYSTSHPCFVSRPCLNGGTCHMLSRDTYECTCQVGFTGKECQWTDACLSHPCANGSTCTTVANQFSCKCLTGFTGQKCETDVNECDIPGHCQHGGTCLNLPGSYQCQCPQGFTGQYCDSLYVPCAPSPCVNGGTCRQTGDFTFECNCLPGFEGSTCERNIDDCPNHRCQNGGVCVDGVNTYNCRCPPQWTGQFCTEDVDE
Description: as §1

[8] = biological target: T8, hN2 12-12 (human Notch2 amino acids 454-493 fused to hFc) (human, UniProt Q04721 454-493); test: capture ELISA: hN2-hFc from HEK-293 supernatant on anti-human Fc plates, 59R1 Fab, HRP anti-human Fab [lower graph]
T8 construct: not shown: constant region of human IgG (hFc)
T8 chain: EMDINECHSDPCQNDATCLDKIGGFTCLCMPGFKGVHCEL
Description: as §1

[9] = biological target: T9, hN2 11-12 (human Notch2 amino acids 413-493 fused to hFc) (human, UniProt Q04721 413-493); test: as above
T9 construct: not shown: constant region of human IgG (hFc)
T9 sequence: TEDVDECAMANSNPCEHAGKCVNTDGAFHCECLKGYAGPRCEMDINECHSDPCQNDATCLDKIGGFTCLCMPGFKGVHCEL
Description: as §1

[10] = biological target: T10, human Notch2 as used in the Biacore analysis of Table 6 (construct not stated) (human, UniProt Q04721 375-605, limits assumed); test: Biacore SPR
T10 construct: also called h-Notch2
T10 sequence: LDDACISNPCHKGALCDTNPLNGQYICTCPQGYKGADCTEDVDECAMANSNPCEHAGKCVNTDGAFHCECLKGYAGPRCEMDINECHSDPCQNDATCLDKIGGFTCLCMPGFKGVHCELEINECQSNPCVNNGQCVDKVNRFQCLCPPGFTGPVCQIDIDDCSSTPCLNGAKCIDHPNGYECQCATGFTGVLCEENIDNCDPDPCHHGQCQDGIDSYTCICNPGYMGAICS

[11] = biological target: T11, recombinant mouse Notch2 (EGF10-15) (mouse, UniProt O35516 375-605); test: Biacore SPR
T11 construct: domain: EGF10-15; also called mNotch2; m-Notch2
T11 sequence (looked up): T10 sequence with I121V, V191I, E194D

[12] = biological target: T12, recombinant human Notch3 (EGF9-14) (human, UniProt Q9UM47 351-580); test: Biacore SPR
T12 construct: The whole entry for hNotch3 is named here; also called hNotch3; h-Notch3
T12 sequence: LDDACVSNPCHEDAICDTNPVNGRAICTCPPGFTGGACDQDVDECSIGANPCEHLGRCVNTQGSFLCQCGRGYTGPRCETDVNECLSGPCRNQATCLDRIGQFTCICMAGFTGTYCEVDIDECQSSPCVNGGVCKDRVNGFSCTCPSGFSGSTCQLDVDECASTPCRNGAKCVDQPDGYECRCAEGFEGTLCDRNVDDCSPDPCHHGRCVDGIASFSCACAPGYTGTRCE

[13] = biological target: T13, recombinant mouse Notch3 (EGF9-14) (mouse, UniProt Q61982 352-581); test: Biacore SPR
T13 construct: domain: EGF9-14; also called mNotch3; m-Notch3
T13 sequence (looked up): T12 sequence with N22S, T153M, D193E, T227I

[14] = biological target: T14, human Notch1, full length, on transfected cells (human, UniProt P46531 19-2555); test: FACS on HEK 293 cells transiently transfected with Notch1 Full Length and GFP
T14 construct: also called hNotch1
T14 sequence (P46531 19-2555 limits assumed): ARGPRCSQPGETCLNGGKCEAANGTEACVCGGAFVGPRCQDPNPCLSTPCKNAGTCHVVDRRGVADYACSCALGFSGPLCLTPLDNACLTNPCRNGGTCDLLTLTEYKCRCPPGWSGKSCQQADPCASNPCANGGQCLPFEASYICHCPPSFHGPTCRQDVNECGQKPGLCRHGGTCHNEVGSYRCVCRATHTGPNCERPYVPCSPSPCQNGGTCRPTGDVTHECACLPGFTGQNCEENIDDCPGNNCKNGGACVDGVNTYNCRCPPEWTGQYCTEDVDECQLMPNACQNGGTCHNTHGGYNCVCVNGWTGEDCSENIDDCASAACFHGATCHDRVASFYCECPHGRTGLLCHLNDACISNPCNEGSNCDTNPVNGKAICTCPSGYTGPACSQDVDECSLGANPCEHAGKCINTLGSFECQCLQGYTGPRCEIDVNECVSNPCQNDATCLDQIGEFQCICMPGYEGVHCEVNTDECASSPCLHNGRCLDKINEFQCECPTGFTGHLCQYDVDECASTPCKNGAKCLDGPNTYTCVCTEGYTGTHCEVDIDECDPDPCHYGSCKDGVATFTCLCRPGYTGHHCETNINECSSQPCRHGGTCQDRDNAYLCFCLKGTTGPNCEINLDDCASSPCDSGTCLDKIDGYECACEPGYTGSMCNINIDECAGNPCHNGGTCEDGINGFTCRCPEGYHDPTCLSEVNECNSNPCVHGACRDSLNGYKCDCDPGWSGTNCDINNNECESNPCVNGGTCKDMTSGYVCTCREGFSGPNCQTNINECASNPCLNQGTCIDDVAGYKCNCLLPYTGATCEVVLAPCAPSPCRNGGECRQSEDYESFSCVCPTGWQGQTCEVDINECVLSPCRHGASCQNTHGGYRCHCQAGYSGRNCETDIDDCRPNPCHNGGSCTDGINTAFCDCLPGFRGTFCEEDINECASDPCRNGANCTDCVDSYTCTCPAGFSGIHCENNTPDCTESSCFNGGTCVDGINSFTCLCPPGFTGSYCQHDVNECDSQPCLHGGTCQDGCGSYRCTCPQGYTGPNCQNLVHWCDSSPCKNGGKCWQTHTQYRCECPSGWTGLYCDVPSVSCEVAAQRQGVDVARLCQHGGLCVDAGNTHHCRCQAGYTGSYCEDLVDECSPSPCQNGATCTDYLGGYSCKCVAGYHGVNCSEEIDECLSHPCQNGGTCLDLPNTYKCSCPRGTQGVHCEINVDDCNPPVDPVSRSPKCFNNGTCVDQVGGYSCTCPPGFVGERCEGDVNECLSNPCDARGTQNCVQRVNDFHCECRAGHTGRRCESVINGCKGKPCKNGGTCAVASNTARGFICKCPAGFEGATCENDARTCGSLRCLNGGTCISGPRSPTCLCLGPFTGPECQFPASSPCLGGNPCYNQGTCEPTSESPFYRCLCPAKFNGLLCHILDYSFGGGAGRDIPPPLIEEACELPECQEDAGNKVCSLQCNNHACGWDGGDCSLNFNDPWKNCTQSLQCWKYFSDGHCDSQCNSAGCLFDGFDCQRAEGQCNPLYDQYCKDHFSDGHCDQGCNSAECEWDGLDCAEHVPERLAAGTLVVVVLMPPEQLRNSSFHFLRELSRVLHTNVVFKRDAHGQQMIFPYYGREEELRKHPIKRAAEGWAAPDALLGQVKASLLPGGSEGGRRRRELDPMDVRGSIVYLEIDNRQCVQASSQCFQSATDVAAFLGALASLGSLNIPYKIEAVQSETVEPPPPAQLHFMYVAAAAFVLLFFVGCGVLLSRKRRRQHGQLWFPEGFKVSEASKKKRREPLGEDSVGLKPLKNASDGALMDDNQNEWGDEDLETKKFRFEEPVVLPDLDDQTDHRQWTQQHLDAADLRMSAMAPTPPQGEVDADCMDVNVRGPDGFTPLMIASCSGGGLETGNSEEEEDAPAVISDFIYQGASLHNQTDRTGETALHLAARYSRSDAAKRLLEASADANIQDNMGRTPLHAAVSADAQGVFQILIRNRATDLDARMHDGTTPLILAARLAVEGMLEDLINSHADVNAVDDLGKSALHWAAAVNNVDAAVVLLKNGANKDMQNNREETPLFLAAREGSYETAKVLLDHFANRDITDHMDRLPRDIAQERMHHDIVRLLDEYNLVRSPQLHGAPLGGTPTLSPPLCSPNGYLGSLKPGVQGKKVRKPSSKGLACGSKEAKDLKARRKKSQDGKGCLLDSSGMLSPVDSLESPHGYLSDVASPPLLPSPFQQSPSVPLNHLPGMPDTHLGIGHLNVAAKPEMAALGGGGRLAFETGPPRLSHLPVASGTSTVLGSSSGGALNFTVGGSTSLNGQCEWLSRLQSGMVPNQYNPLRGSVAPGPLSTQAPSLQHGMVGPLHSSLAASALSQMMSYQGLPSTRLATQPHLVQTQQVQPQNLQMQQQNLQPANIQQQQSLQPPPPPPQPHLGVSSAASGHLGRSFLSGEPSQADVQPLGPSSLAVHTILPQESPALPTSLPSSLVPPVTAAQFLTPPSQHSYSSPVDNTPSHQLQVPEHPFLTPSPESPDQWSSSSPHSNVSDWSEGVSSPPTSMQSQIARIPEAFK
Description: FIG. 15. In vitro characterization of 59R5. […] PC3 tumor cells were transiently transfected with human or mouse Notch receptor (hN2, human Notch2; mN2, murine Notch2; hN3, human Notch3; mN3, murine Notch3) and GFP inducible reporter construct. Transfected cells were incubated with different concentrations of antibody 59R1 and 59R5 in the presence of passively immobilized DLL4 Fc. […] Cells were also co-transfected with a plasmid encoding green fluorescent protein (GFP) to mark those cells that received transfected plasmid. Cells were incubated with 59R1 or 59R5 and fluorescent secondary antibody and then examined by FACS.
The binding epitope of 59R5 was determined. As was described in Example 3 for analysis of antibody 59R1, several point mutants were created within full-length Notch1, converting residues within EGF10 to the corresponding amino acids in human Notch 2. Mutants in full-length Notch sequences were generated by QuikChange® mutagenesis (Stratagene) and verified by sequencing. […] Cells were also co-transfected with a plasmid encoding green fluorescent protein (GFP) to mark those cells that received transfected plasmid. Cells were incubated with 59R1 or 59R5 and fluorescent secondary antibody and then examined by FACS. 59R1 and 59R5 were detected by PE-conjugated goat anti-human Fc gamma specific antibody (Jackson Immunochemicals, #109-116-170).

Binder	binding result [1]	binding result [2]	binding result [3]	binding result [4]	binding result [5]	binding result [6]	binding result [7]	binding result [8]	binding result [9]	Kd [10]	Kd [11]	Kd [12]	Kd [13]	binding result [14]
B1	no binding (tested: 10 ug/ml)	no binding (tested: 10 ug/ml)	no binding (tested: 10 ug/ml)	no binding (tested: 10 ug/ml)	no binding (tested: 10 ug/ml)	no binding (tested: 10 ug/ml)	no binding (tested: 10 ug/ml)	no binding (tested: 10 ug/ml)	no binding (tested: 10 ug/ml)					
B2										0.05 nM	0.26 nM	0.22 nM	0.29 nM	no binding
